Experimental data: US20160046711A1 (Novartis, published 2016)
Residue numbers refer to the chain shown, from its start. Where two headings read alike, the source gives them in different places. Values belong to the molecule of their own block, whether it stands above or below them.

Key:
[1] = molecular target: T1, human CDH6 expressed on cells (human, UniProt P55285 54-790); assay: FACS histogram on OVCAR8-CDH6+ cells
T1 sequence: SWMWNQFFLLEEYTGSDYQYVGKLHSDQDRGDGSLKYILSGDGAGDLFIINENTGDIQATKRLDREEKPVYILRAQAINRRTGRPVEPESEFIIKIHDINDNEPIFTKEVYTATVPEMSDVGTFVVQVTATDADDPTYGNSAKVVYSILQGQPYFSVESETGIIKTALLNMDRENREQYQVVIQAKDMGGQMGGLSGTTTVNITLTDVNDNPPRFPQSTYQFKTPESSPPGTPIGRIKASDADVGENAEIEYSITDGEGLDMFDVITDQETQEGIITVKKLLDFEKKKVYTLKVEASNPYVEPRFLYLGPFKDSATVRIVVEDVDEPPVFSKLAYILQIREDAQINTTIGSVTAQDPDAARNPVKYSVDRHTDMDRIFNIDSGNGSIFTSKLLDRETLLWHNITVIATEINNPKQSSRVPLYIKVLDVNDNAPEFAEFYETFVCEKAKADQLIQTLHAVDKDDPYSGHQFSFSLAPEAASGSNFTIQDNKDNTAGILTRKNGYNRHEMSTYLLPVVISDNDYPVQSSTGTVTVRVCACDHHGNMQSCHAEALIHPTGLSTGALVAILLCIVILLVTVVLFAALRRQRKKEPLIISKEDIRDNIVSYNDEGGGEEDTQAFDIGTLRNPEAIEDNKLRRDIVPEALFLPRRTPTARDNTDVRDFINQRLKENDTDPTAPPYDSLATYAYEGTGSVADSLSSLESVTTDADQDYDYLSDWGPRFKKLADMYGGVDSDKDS

[2] = molecular target: T1, human CDH6 expressed on cells; assay: FACS histogram on OVCAR3 cells
[3] = molecular target: T2, CDH6-N573A (human, UniProt P55285 54-615); assay: ELISA on coated CDH6-N573A, O.D.
T2 sequence: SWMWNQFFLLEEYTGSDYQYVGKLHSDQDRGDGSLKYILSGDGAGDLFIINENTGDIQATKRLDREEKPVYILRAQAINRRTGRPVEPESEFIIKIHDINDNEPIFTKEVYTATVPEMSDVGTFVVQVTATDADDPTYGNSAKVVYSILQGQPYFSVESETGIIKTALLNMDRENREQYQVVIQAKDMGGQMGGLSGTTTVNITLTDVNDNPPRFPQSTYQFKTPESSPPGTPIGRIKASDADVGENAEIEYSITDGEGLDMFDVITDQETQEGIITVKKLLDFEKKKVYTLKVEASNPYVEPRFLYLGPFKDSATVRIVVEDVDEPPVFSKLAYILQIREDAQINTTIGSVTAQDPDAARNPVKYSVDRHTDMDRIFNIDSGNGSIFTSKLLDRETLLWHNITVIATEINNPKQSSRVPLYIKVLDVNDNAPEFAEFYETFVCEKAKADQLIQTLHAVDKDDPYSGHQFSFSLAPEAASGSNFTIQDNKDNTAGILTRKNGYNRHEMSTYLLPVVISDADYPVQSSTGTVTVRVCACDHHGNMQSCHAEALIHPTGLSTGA

[4] = molecular target: T3, CDH6 wt (human, UniProt P55285 54-615, limits assumed); assay: ELISA on coated CDH6-wt, O.D.
T3 sequence: T2 sequence with A520N

[5] = molecular target: T2, CDH6-N573A; assay: ELISA on coated CDH6-N573A, O.D.; remark: listed apart in the source
[6] = molecular target: T3, CDH6 wt; assay: ELISA on coated CDH6-wt, O.D.; remark: listed apart in the source
[7] = molecular target: T4, CDH6-Y575A (human, UniProt P55285 54-615); assay: ELISA on coated CDH6-Y575A, O.D.
T4 sequence: T2 sequence with A520N, Y522A

[8] = molecular target: T5, CDH6-D574A (human, UniProt P55285 54-615); assay: ELISA on coated CDH6-D574A, O.D.
T5 sequence: T2 sequence with A520N, D521A

[9] = molecular target: T3, CDH6 wt; assay: ELISA on coated CDH6-wt, O.D.; remark: listed apart in the source
[10] = molecular target: T2, CDH6-N573A; assay: ELISA on coated CDH6-N573A, O.D.; remark: listed apart in the source
[11] = molecular target: T4, CDH6-Y575A; assay: ELISA on coated CDH6-Y575A, O.D.; remark: listed apart in the source
[12] = molecular target: T5, CDH6-D574A; assay: ELISA on coated CDH6-D574A, O.D.; remark: listed apart in the source

- Geom. Mean Fluorescence [1]: 56.5
- Geom. Mean Fluorescence [2]: 60.4
Molecule: non-binding control ADC (antibody)

- Geom. Mean Fluorescence [1]: 54.2
- EC50 [3]: 0.545 µM
- EC50 [4]: 0.3 µM
- Geom. Mean Fluorescence [2]: 57.9
Molecule: human isotype control IgG (antibody)

- EC50 [5]: 6.74 µM
- EC50 [6]: 7.11 µM
- EC50 [7]: 7.2 µM
- EC50 [8]: 7.58 µM
B1: NOV0720 (antibody, human IgG1, lambda, V domains shown)
VH: QVQLQQSGPGLVKPSQTLSLTCAISGDSVSSNSAGWNWIRQSPSRGLEWLGRIYYRSKWYNDYAVSVKSRITINPDTSKNQFSLQLNSVTPEDTAVYYCAREKYTVSFYDFFDYWGQGTLVTVSS
VL: DIELTQPPSVSVSPGQTASITCSGDNIGSMTAHWYQQKPGQAPVLVIYDKNERPSGIPERFSGSNSGNTATLTISGTQAEDEADYYCQSWDDSYNSVVFGGGTKLTVLG

- EC50 [9]: 0.2 µM
- EC50 [10]: 459 µM
- EC50 [11]: 0.287 µM
- EC50 [12]: 151 µM
B2: NOV0710 (antibody, human IgG1, kappa, V domains shown)
VH: QVQLLESGGGLVQPGGSLRLSCAASGFTFSSYAMSWVRQAPGKGLEWVSVIRSSGSSTYYADSVKGRFTISRDNSKNTLYLQMNSLRAEDTAVYYCARGGGYFDYWGQGTLVTVSS
VL: DIQMTQSPSSLSASVGDRVTITCRASQSISLWLNWYQQKPGKAPKLLIYAASTLQSGVPSRFSGSGSGTDFTLTISSLQPEDFATYYCQQYYTSPYTFGQGTKVEIKR
